Measured values as given in patent publication US20220324939A1 (Regeneron, published 2022).

Columns and labels:
[1] = target: T1, soluble HLA-A2 MAGE-A4 (…) tetramer (human); assay: flow cytometry tetramer staining; % with MAGE-A4 tetramer divided by % with MAGE-A8 tetramer (reference)
T1 construct: Bought tetramer reagent; also called MAGE-A4/HLA tetramer reagent; HLA-A02:01 MAGE-A4 tetramer
Method: (§1) Samples were then analyzed on an LSRFortessa X-20 (BD Biosciences, San Jose, Calif.). […] However, a more stringent cutoff, such as 3%, could be used to separate out Ag+ TCRs that behave better in the binding assay. Ag+ TCRs were determined by Next Generation Sequencing.

[2] = target: T2, soluble HLA-A2 MAGE-A8 (…) tetramer (human); assay: flow cytometry, HLA-A2 MAGE-A8 (…) tetramer staining of CHO cells transfected with the TCR
T2 construct: Bought tetramer reagent; also called MAGE-A8/HLA tetramer reagent; HLA-A02:01 MAGE-A8 tetramer
Method: as §1

[3] = target: T1, soluble HLA-A2 MAGE-A4 (…) tetramer; assay: flow cytometry, HLA-A2 MAGE-A4 (…) tetramer staining of CHO cells transfected with the TCR
Method: as §1

[4] = target: T3, MAGE-A8 peptide on HLA-A*02:01 (human); assay: multimer staining
T3 peptide: GLYDGREHSV

[5] = target: T4, MAGE-A4 peptide on HLA-A*02:01 (human); assay: multimer staining
T4 peptide: GVYDGREHTV

MAGE-A4/MAGE-A8 (ratio of % tetramer in Ag+ gate) [1]: 1.23 | % tetramer in Ag+ gate (MAGE-A8) [2]: 60.6% | % tetramer in Ag+ gate (MAGE-A4) [3]: 74.8% | binding result [4]: recognises | binding result [5]: recognises
B1: PN45546 (TCR, V domains shown)
V domain 1: AQTVTQSQPEMSVQEAETVTLSCTYDTSESDYYLFWYKQPPSRQMILVIRQEAYKQQNATENRFSVNFQKAAKSFSLKISDSQLGDAAMYFCAYRSGAGGTSYGKLTFGQGTILTVHP
V domain 2: DAGVTQSPTHLIKTRGQQVTLRCSPISGHKSVSWYQQVLGQGPQFIFQYYEKEERGRGNFPDRFSARQFPNYSSELNVNALLLGDSALYLCASSIRDTYGYTFGSGTRLTVV
notes: full-length chains on transfected CHO cells; also called TCR No. 53
